In PMC12086504 (Traffic (Copenhagen, Denmark), 2025):

T1: BicD^CC2‐CC3 (amino acids 318–782) (Drosophila, UniProt P16568 318-782, biotin on the biotin tag)
T1 sequence (looked up): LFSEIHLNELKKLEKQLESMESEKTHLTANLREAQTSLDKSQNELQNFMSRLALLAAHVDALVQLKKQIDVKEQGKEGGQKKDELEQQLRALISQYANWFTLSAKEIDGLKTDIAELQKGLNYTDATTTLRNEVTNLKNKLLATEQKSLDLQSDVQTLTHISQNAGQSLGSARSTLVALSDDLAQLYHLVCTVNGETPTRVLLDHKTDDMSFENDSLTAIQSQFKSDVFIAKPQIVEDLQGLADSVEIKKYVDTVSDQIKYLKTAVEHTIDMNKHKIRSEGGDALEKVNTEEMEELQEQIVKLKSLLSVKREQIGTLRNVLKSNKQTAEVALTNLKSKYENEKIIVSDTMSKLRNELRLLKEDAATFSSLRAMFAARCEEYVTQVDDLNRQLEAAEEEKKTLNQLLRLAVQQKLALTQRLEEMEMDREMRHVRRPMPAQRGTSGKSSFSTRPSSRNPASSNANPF

B1: homodimeric Drosophila kinesin‐1 (kinesin heavy chain, no bound light chains) (natural protein, Drosophila melanogaster, UniProt P17210 1-975, looked up)
chain: MSAEREIPAEDSIKVVCRFRPLNDSEEKAGSKFVVKFPNNVEENCISIAGKVYLFDKVFKPNASQEKVYNEAAKSIVTDVLAGYNGTIFAYGQTSSGKTHTMEGVIGDSVKQGIIPRIVNDIFNHIYAMEVNLEFHIKVSYYEIYMDKIRDLLDVSKVNLSVHEDKNRVPYVKGATERFVSSPEDVFEVIEEGKSNRHIAVTNMNEHSSRSHSVFLINVKQENLENQKKLSGKLYLVDLAGSEKVSKTGAEGTVLDEAKNINKSLSALGNVISALADGNKTHIPYRDSKLTRILQESLGGNARTTIVICCSPASFNESETKSTLDFGRRAKTVKNVVCVNEELTAEEWKRRYEKEKEKNARLKGKVEKLEIELARWRAGETVKAEEQINMEDLMEASTPNLEVEAAQTAAAEAALAAQRTALANMSASVAVNEQARLATECERLYQQLDDKDEEINQQSQYAEQLKEQVMEQEELIANARREYETLQSEMARIQQENESAKEEVKEVLQALEELAVNYDQKSQEIDNKNKDIDALNEELQQKQSVFNAASTELQQLKDMSSHQKKRITEMLTNLLRDLGEVGQAIAPGESSIDLKMSALAGTDASKVEEDFTMARLFISKMKTEAKNIAQRCSNMETQQADSNKKISEYEKDLGEYRLLISQHEARMKSLQESMREAENKKRTLEEQIDSLREECAKLKAAEHVSAVNAEEKQRAEELRSMFDSQMDELREAHTRQVSELRDEIAAKQHEMDEMKDVHQKLLLAHQQMTADYEKVRQEDAEKSSELQNIILTNERREQARKDLKGLEDTVAKELQTLHNLRKLFVQDLQQRIRKNVVNEESEEDGGSLAQKQKISFLENNLDQLTKVHKQLVRDNADLRCELPKLEKRLRCTMERVKALETALKEAKEGAMRDRKRYQYEVDRIKEAVRQKHLGRRGPQAQIAKPIRSGQGAIAIRGGGAVGGPSPLAQVNPVNS
modifications: biotin on the biotin tag (biotinylation occurs during expression in Sf9 cells)
B2: heterotetrameric kinesin^KLC (kinesin heavy chain with bound kinesin light chains) (complex)
heavy: B1 chain
light: MTQMSQDEIITNTKTVLQGLEALRVEHVSIMNGIAEVQKDNEKSDMLRKNIENIELGLSEAQVMMALTSHLQNIEAEKHKLKTQVRRLHQENAWLRDELANTQQKFQASEQLVAQLEEEKKHLEFMASVKKYDENQEQDDACDKSRTDPVVELFPDEENEDRHNMSPTPPSQFANQTSGYEIPARLRTLHNLVIQYASQGRYEVAVPLCKQALEDLERTSGHDHPDVATMLNILALVYRDQNKYKEAANLLNDALSIRGKTLGENHPAVAATLNNLAVLYGKRGKYKDAEPLCKRALEIREKVLGKDHPDVAKQLNNLALLCQNQGKYDEVEKYYQRALDIYESKLGPDDPNVAKTKNNLAGCYLKQGRYTEAEILYKQVLTRAHEREFGAIDSKNKPIWQVAEEREEHKFDNRENTPYGEYGGWHKAAKVDSPTVTTTLKNLGALYRRQGMFEAAETLEDCAMRSKKEAYDLAKQTKLSQLLTSNEKRRSKAIKEDLDFSEEKNAKP
modifications: biotin on the biotin tag
B3: Drosophila kinesin^ΔH2 (kinesin heavy chain lacking the hinge 2 region, amino acids K521‐D641) (natural protein, Drosophila melanogaster, UniProt P17210 1-975, looked up)
chain: MSAEREIPAEDSIKVVCRFRPLNDSEEKAGSKFVVKFPNNVEENCISIAGKVYLFDKVFKPNASQEKVYNEAAKSIVTDVLAGYNGTIFAYGQTSSGKTHTMEGVIGDSVKQGIIPRIVNDIFNHIYAMEVNLEFHIKVSYYEIYMDKIRDLLDVSKVNLSVHEDKNRVPYVKGATERFVSSPEDVFEVIEEGKSNRHIAVTNMNEHSSRSHSVFLINVKQENLENQKKLSGKLYLVDLAGSEKVSKTGAEGTVLDEAKNINKSLSALGNVISALADGNKTHIPYRDSKLTRILQESLGGNARTTIVICCSPASFNESETKSTLDFGRRAKTVKNVVCVNEELTAEEWKRRYEKEKEKNARLKGKVEKLEIELARWRAGETVKAEEQINMEDLMEASTPNLEVEAAQTAAAEAALAAQRTALANMSASVAVNEQARLATECERLYQQLDDKDEEINQQSQYAEQLKEQVMEQEELIANARREYETLQSEMARIQQENESAKEEVKEVLQALEELAVNYDQSNKKISEYEKDLGEYRLLISQHEARMKSLQESMREAENKKRTLEEQIDSLREECAKLKAAEHVSAVNAEEKQRAEELRSMFDSQMDELREAHTRQVSELRDEIAAKQHEMDEMKDVHQKLLLAHQQMTADYEKVRQEDAEKSSELQNIILTNERREQARKDLKGLEDTVAKELQTLHNLRKLFVQDLQQRIRKNVVNEESEEDGGSLAQKQKISFLENNLDQLTKVHKQLVRDNADLRCELPKLEKRLRCTMERVKALETALKEAKEGAMRDRKRYQYEVDRIKEAVRQKHLGRRGPQAQIAKPIRSGQGAIAIRGGGAVGGPSPLAQVNPVNS
modifications: biotin on the biotin tag
B4: kinesin^ΔH2 with added kinesin light chain (KLC) (complex)
heavy: B3 chain
light: B2 light
modifications: biotin on the biotin tag

Key:
[1] = biological target: T1, BicD^CC2‐CC3 (amino acids 318–782); assay: single-molecule TIRF microscopy
[2] = biological target: T1, BicD^CC2‐CC3 (amino acids 318–782); assay: interferometric scattering mass spectrometry

Binder | percent of Qdots in complexes with BicD^CC2-CC3 [1] | stoichiometry N [2]
B1 | 16.4% | 
B2 | 3.7% | 
B3 | 21.3% | 2 kinesins per BicD^CC2-CC3
B4 | 6.6% | 
